From publication PMC8976148, “Long-range structural preformation in yes-associated protein precedes encounter complex formation with TEAD” (iScience, 2022) come the findings set out here.

For the experiment, the target named is T1, Biotinylated N-Avitagged-TEAD4^217-434 (UniProt Q15561 217-434, biotin (biotinylated Avitag)).
T1 construct: TEAD4, residues 217-434; not shown: Avitag, N-terminal, kept
The experiment can be described thus: FRET or BRET; TR-FRET competition: biotinylated N-Avitagged TEAD4 217-434 (1 nM) on LANCE Eu-W1024 streptavidin (0.5 nM), Cy5-labelled YAP as tracer, serial dilutions of the YAP proteins; 50 mM HEPES pH 7.4, 100 mM KCl, 0.05% Tween-20, 0.25 mM TCEP, 0.05% BSA, 2% DMSO; 1 h at room temperature. Particulars: both partners purified.

Numbering of substitutions follows the chain as printed.

T1 sequence (Q15561 217-434): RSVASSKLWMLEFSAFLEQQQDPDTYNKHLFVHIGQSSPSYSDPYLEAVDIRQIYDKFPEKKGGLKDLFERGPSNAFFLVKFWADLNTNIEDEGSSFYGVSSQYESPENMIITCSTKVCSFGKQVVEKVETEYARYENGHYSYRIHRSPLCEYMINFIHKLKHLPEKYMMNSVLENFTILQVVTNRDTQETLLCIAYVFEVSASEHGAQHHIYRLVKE

B1: YAP^50-171 (domain or fragment, UniProt P46937 50-171, looked up)
chain: AGHQIVHVRGDSETDLEALFNAVMNPKTANVPQTVPMRLRKLPDSFFKPPEPKSHSRQASTDAGTAGALTPQHVRAHSSPASLQLGAVSPGTLTPTGVVSGPAATPTAQHLRQSSFEIPDDV
notes: YAP (Yes-associated protein), residues 50-171; 15N-labelled in the intermolecular PRE control; also called YAP^wt; Yes-associated protein; source: E. coli Tuner(DE3), purified (HisTrap FF, 3C protease cleavage, heating to 90°C, size exclusion); not shown: His6, N-terminal, cleaved
B1: the binding result is given as “binds”.

B2: YAP^50-171 V80C (domain or fragment, UniProt P46937 50-171, looked up)
chain: B1 chain with V31C
notes: YAP (Yes-associated protein), residues 50-171; source: E. coli Tuner(DE3), purified (HisTrap FF, 3C protease cleavage, heating to 90°C, size exclusion; buffers with 1 mM DTT); not shown: His6, N-terminal, cleaved
For B2, the binding result is “binds”.

B3: YAP^50-171 Q158C (domain or fragment, UniProt P46937 50-171, looked up)
chain: B1 chain with Q109C
notes: as for B2
Consider B3, for which the binding result was “binds”.

B4: YAP^50-171 S138C (domain or fragment, UniProt P46937 50-171, looked up)
chain: B1 chain with S89C
notes: as for B2
Consider B4, for which the binding result was “binds”.

B5: YAP^50-171 A71C (domain or fragment, UniProt P46937 50-171, looked up)
chain: B1 chain with A22C
notes: as for B2
In the case of B5, the binding result is listed as “binds”.

B6: YAP^50-171 S164C (domain or fragment, UniProt P46937 50-171, looked up)
chain: B1 chain with S115C
notes: as for B2
Take B6: the binding result is “binds”.

B7: YAP^50-171 K90C (domain or fragment, UniProt P46937 50-171, looked up)
chain: B1 chain with K41C
notes: as for B2
Take B7: the binding result is recorded as “binds”.

B8: YAP^50-171 S103C (domain or fragment, UniProt P46937 50-171, looked up)
chain: B1 chain with S54C
notes: as for B2
Consider B8, for which the binding result is “binds”.

B9: YAP^50-171 T119C (domain or fragment, UniProt P46937 50-171, looked up)
chain: B1 chain with T70C
notes: as for B2
On to B9, for which the binding result is listed as “binds”.

B10: YAP^50-171 S149C (domain or fragment, UniProt P46937 50-171, looked up)
chain: B1 chain with S100C
notes: as for B2
Take B10: the binding result was “binds”.

B11: YAP^50-171 D60C (domain or fragment, UniProt P46937 50-171, looked up)
chain: B1 chain with D11C
notes: as for B2
As to B11, the binding result was “binds”.

B12: YAP^50-171 S127C (domain or fragment, UniProt P46937 50-171, looked up)
chain: B1 chain with S78C
notes: as for B2
B12: the binding result was “binds”.
